Laboratory results: US11932673B2, “Sodium channel inhibitors” (priority 2017, dated 2024)

Legend:
[1] = system: trypsin; assay: TRF binding assay of purified KnotBody Fabs on biotinylated trypsin
[2] = system: trypsin; assay: Phage TRF binding assay of KnotBody phage on immobilised biotinylated trypsin
Description: Phage display technology facilitates isolation of binders to any given target from large combinatorial repertoires based on proteins and peptides that can be presented on the surface of filamentous phage^105. In order to isolate functional knottin-antibody fusions from the KnotBody libraries multiple rounds of phage display selections on trypsin (cognate antigen for the EETI-II donor) were carried out. Phage particles were prepared by rescuing KnotBody libraries using trypsin cleavable helper phage^102,106 Two rounds of phage display selections were performed on 10 μg/ml biotinylated trypsin immobilised on Streptavidin (for Round-1) or Neutravidin (for round-2) coated Maxisorp™ immunotubes (Thermo Scientific, Cat No. 444202). In both rounds of selection, phage libraries were pre-incubated with streptavidin coated paramagnetic beads (Thermo Fisher Scientific, Cat. No. 11205D). These beads were removed prior to the addition the phage to the antigen tubes to limit the streptavidin binders entering the selection. Polyclonal phage preparations from round-2 selection outputs were analysed for trypsin binding using a time resolved fluorescence (TRF) binding assay. In this assay, polyclonal phage binding to biotinylated trypsin immobilised on neutravidin (Thermo Fisher Scientific, Cat. No 31000) coated Maxisorp™ plates (Thermo Scientific, Cat. No. 437111) was detected using a mouse anti-M13 antibody (GE Healthcare, Cat. No. 27-9420-01) followed by europium conjugated anti-mouse antibody (Perkin Elmer, Cat. No. AD0124).
In order to identify monoclonal KnotBodies with desired binding characteristics, 94 individual clones derived from 2 rounds of selection using EETI-II CDR1 or CDR2 libraries were picked into 96 well culture plates and phage were prepared from each clone. Methods for screening by monoclonal phage ELISA are known in the art^107. […] Clones with >3× binding signal above background were picked as positive clones and sequenced to identify unique clones. 14 and 42 unique binders were identified from EETI-II CDR1 and EETI-II CDR2 libraries respectively (Table 1). 18 binders from the EETI-II CDR2 library and 3 binders from the EETI-II-CDR1 library were chosen for further characterisation based on their VL and linker sequence diversity. These binders were assigned new clone identification numbers (Table 2). […] In order to confirm that the loss of trypsin binding was not due to reduced expression or display of pIII fusion phage was prepared from 11 (randomly chosen) KnotBodies and their GlyAla variants were analysed on a western blot using an antibody which recognises the product of gene 3 (pIII) using an anti-pIII antibody (MoBiTec GmbH) (FIG. 6).

[3] = target: T1, huASIC1a (Homo sapiens, UniProt P78348); assay: QPatch automated whole-cell patch-clamp on HEK293 cells stably expressing huASIC1a; assay type: cell-based; settings: pH 6.0 activation after 15-20 min pre-incubation; concentration μM: KB_A07_PcTx1 6.6, KB_A12_PcTx1 5, KB_A12_Mba-1 3, KB_A12_Mba-2 2.3, KB_A07 6, KB_A12 3.3
T1 sequence (P78348 whole entry, looked up): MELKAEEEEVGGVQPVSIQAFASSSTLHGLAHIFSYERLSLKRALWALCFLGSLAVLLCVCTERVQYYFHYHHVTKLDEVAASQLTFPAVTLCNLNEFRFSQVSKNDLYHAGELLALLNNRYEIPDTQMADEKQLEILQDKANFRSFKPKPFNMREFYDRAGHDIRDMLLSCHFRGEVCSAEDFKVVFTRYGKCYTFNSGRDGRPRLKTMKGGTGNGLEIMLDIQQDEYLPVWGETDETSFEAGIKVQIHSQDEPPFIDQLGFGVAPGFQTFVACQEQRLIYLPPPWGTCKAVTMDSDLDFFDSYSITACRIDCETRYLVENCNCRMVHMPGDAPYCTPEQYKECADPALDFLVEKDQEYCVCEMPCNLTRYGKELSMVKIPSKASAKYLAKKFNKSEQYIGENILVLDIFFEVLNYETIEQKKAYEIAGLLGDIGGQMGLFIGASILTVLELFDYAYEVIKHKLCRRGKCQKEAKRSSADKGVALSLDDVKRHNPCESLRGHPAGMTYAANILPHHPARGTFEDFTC
Description: Knottin Kv 1.3 and ASIC1a blockers expressed in the KnotBody format (see examples 6 and 7) were tested for their ability to inhibit the function of the ion channel targets. The effect of these KnotBodies on cells expressing the human Kv 1.3 (huKv1.3) or human ASIC1a channels was assessed using QPatch automated whole-cell patch-clamp electrophysiology (Sophion).
To functionally assess the ASIC1a KnotBodies, HEK293 cells stably expressing huASIC1a (Sophion) were analysed using a QPatch electrophysiology assay in the presence or absence of the KnotBody fusions (using KB_A12 as a recipient and replacing the original EETI-II donor as shown in Table 8). The “parental” KB_A12 with the EETI-II donor was used as a negative control. Internal and external physiological solutions were freshly prepared prior to the assay. […]
At the end of each KnotBody incubation and subsequent ASIC1a current activation, a full blocking concentration (300 nM) of the ASIC1a knottin inhibitor PcTx1 (positive control) was perfused onto the cell recording and a final activating pH 6.0 external solution was applied. The percentage remaining signal between activating pH 6.0 baseline (i.e. pre-KnotBody) and post-KnotBody incubation was determined.

[4] = target: LOX-1 (Homo sapiens, UniProt P78380); assay: Phage TRF binding assay of adhiron-antibody fusions on LOX-1; settings: monoclonal phage; LOX-1 directly immobilised; non-specific binding checked on cMET-FC, GAS6-CD4, FGFR4-CD4, UPA, B-gal
Description: In order to test the functionality of these adhiron-antibody fusions, monoclonal phage prepared from each clone was assessed for binding to LOX-1 in a TRF binding assay. In this assay, LOX-1 (immobilised directly on Maxisorp™ plates) binding of phage displaying adhiron-antibody fusion was detected using a mouse anti-M13 antibody (GE Healthcare) followed by europium conjugated anti-mouse antibody (Perkin Elmer). Parent KnotBodies KB_A07 and KB_A12 (EETI-II fusions) were included as controls. Proteins cMET-FC, GAS6-CD4, FGFR4-CD4, UPA and B-gal were used to examine non-specific binding.

[5] = target: human Nav1.7 (Homo sapiens, UniProt Q15858); assay: QPatch patch-clamp on CHO cells stably expressing human Nav1.7, single application (Example 19); assay type: cell-based
Description: The effect of these KnotBodies on cells expressing human Nav1.7 (huNav1.7) channel was assessed using QPatch automated patch-clamp platform (Sophion). For the testing of Nav1.7 ion channel currents, CHO cells stably expressing human Nav1.7 (GenBank accession number NM 002977; cell line catalogue number CT6003, Charles River Discovery, Cleveland, USA) were subjected to the QPatch electrophysiology assay in the presence or absence of the KnotBody fusions or the antibody isotypes (negative controls). Internal and external physiological solutions were freshly prepared prior to the assay. The extracellular solution contained 145 mM NaCl, 4 mM KCl, 2 mM CaCl2, 1 mM MgCl2, 10 mM HEPES and 10 mM glucose; the pH was adjusted to 7.4 with NaOH; the osmolarity was ˜305 mOsm/L. The intracellular solution contained: KF (120 mM), KCl (20 mM), HEPES (10 mM) EGTA (10 mM); the pH was adjusted to 7.2 with KOH; osmolarity was ˜300 mOsm/L.
A series of depolarising voltage (channel activating) pulses were used to monitor the channel currents upon adding control (extracellular solution) to define a control baseline of current activity. To these measured control channel currents KnotBody or parental antibody isotypes (control molecules) were applied to the external bathing solution. The parental KnotBody KB_A12 (with trypsin inhibitor knottin EETI-II at CDR2) were used as test molecule isotype controls for the testing. […] The elicited, maximum outward current values measured during the −10 mV activating step for each solution period (a control, baseline level of current was determined at 10 minutes after application of the control external recording solution and a test level of current was determined after 20 minutes of application of KnotBody or its isotype) and average inhibition was determined between the current from the 10 minute baseline control current and the subsequent 20 minute KnotBody application. […] The average inhibition values (with external control reduction subtracted) for KnotBodies and isotypes was calculated.

Chain of human Nav1.7 (Q15858 other isoform, or with tags, fused parts or gaps): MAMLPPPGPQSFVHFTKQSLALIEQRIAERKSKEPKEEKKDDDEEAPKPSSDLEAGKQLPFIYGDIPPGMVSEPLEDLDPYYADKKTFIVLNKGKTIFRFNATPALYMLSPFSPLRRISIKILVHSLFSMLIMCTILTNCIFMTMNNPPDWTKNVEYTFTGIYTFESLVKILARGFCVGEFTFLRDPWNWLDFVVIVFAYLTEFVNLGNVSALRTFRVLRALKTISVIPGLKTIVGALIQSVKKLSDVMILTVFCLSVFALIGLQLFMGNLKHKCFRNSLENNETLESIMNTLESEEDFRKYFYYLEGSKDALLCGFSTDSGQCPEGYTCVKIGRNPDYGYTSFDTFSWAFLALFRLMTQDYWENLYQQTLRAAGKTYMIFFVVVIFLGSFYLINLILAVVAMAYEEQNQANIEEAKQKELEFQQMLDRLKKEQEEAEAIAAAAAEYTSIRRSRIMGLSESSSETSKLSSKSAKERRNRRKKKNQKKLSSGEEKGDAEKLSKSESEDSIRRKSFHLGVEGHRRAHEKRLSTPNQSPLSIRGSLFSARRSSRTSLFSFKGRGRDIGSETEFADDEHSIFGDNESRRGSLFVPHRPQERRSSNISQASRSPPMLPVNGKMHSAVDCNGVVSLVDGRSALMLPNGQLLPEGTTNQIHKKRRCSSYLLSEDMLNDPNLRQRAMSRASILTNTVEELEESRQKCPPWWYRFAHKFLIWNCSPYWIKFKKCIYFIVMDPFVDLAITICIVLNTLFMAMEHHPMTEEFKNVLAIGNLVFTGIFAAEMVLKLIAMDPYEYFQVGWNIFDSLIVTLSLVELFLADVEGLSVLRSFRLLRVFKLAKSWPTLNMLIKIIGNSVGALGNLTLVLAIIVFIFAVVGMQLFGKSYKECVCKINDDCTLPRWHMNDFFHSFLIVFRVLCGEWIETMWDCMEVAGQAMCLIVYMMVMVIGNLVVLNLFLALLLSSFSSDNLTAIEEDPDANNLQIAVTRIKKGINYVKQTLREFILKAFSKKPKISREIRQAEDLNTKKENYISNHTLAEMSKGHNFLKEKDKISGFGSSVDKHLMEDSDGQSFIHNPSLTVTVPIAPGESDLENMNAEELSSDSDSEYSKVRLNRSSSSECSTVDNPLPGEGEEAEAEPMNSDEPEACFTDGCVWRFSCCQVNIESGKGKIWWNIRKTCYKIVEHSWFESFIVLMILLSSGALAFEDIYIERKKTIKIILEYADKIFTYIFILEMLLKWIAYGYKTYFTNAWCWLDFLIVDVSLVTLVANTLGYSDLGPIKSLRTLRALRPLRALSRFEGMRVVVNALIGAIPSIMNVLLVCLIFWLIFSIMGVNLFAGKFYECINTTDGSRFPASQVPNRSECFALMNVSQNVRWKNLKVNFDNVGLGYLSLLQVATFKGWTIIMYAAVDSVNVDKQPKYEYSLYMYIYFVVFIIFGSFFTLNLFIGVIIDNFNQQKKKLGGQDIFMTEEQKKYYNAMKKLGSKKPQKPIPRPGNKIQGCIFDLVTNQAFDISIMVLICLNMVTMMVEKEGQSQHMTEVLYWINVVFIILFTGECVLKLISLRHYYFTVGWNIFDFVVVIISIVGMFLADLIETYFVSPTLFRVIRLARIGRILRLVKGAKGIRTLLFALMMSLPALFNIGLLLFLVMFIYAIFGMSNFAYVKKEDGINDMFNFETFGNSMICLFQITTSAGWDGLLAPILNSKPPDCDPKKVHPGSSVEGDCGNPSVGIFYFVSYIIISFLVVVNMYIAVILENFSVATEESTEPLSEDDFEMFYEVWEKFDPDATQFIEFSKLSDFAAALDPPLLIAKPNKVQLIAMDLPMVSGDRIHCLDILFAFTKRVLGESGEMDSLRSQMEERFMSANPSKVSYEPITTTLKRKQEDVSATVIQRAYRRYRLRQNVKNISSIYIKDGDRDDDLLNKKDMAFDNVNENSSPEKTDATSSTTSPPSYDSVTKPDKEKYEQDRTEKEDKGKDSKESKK

B1: KB_A07: EETI-II VL CDR2 KnotBody, D1A12 VH, VL SEQ ID NO: 136/372; parental/isotype control (antibody, V domains shown)
VH: EVQLVESGGGLVRPGGSLRLSCAASGFTFSSYAMSWVRQAPGKGLEWVSAISGSGGSTYYADSVKGRFTISRDNTKNSLYLQMTSLRADDTAFYYCVKDFGPGYGTGWFDYWGPGTLVTVSS
VL: DIQMTQSPSSLSASVGDRVTITCRASQSISSYLNWYQQKPGKAPKLLIYAAGVCPRILMRCKQDSDCLAGCVCGPNGFCGSRSGVPSRFSGSGSGTDFTLTISSLQPEDFATYYCQQGASPPYTFGQGTKVEIKR
- TRF signal for 0.6 ug/mL Fab ([1]; KnotBody Fab 0.6 ug/mL, background (no Fab) 431): 107814
- TRF signal for 2.4 ug/mL Fab ([1]; KnotBody Fab 2.4 ug/mL, background (no Fab) 406): 201003
- TRF signal for 10 ug/mL Fab ([1]; KnotBody Fab 10 ug/mL, background (no Fab) 420): 226082
- % reduction in binding signal ([2]; […], monoclonal phage, streptavidin coated plates): 98%
- Tryspin binding signal (FU) ([2]; monoclonal phage supernatant, biotinylated trypsin on neutravidin coated plates, TRF): 21448 FU
- % current remaining [3]: 70.9%
- binding to LOX-1 [4]: no detectable binding to the LOX-1

B2: KB_A12_ProTx-III Gly (antibody, V domains shown)
VH: EVQLVESGGGLVRPGGSLRLSCAASGFTFSSYAMSWVRQAPGKGLEWVSAISGSGGSTYYADSVKGRFTISRDNTKNSLYLQMTSLRADDTAFYYCVKDFGPGYGTGWFDYWGPGTLVTVSS
VL: QSVLTQPPSVSEAPRQRVTITCSGSSSNIGNNAVNWYQQLPGKAPKLLIYAAGRDCLKFGWKCNPRNDKCCSGLKCGSNHNWCKLHIGANSGVSDRFSAAKSGTSASLAINGLRSEDEADYYCAAWDDSLNGYVFGTGTKLTVLG
- Mean % inhibition of Nav1.7 currents ([5]; concentration tested 22.3 μM): 26.6%

B3: KB_A12_ProTx-III 2M Gly: ProTx-III 2M Gly in VL CDR2 of KB_A12, IgG; Nav1.7 KnotBody (antibody, V domains shown)
VH: EVQLVESGGGLVRPGGSLRLSCAASGFTFSSYAMSWVRQAPGKGLEWVSAISGSGGSTYYADSVKGRFTISRDNTKNSLYLQMTSLRADDTAFYYCVKDFGPGYGTGWFDYWGPGTLVTVSS
VL: QSVLTQPPSVSEAPRQRVTITCSGSSSNIGNNAVNWYQQLPGKAPKLLIYAAGRGCLKFGWKCNPRNDKCCSGLKCGSNHNWCKWHIGANSGVSDRFSAAKSGTSASLAINGLRSEDEADYYCAAWDDSLNGYVFGTGTKLTVLG
- Mean % inhibition of Nav1.7 currents ([5]; concentration tested 15.4 μM): 63.5%
